Test results from paper PMC6565627, “Therapeutic effects of a novel BAFF blocker on arthritis” (Signal Transduction and Targeted Therapy, 2019).
Where two headings read alike, the source gives them in different places.

Experiments:
[1] = target: T1, human B-cell activating factor (BAFF) (human, UniProt Q9Y275 134-285); test: ELISA; equilibrium binding in solution: human BAFF at 25 pM mixed with antagonist (0.04 nM to 655.36 nM) overnight at room temperature; unbound BAFF detected by ELISA
[2] = target: T1, human B-cell activating factor (BAFF)
[3] = target: T1, human B-cell activating factor (BAFF); test: cell-based or functional assay

T1 sequence (Q9Y275 134-285): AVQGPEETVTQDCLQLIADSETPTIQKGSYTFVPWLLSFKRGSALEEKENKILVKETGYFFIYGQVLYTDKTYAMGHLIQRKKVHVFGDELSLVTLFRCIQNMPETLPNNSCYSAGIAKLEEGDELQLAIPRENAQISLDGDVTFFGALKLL

**Q.** Which results are given for “BAFF-Trap (variant B101): CRD2 of TACI, CRD of Br3 and Fc domain of human IgG1 (Fc fusion)”?
**A.** Kd [1]: 0.00362 µM; IC50 of inhibition of Raji cell proliferation induced by BAFF (1 μg/ml) and anti-IgM, CCK-8, 72 h; blocks BAFF from its receptors TACI and Br3 on Raji cells [2]: 0.0506 µM

**Q.** For “BAFF-Trap variant B102: CRD of Br3, CRD2 of TACI and Fc domain of human IgG1 (Fc fusion)”, which IC50 of inhibition of Raji cell proliferation induced by BAFF (1 μg/ml) and anti-IgM, CCK-8, 72 h [2] is on record?
**A.** Its IC50 of inhibition of Raji cell proliferation induced by BAFF (1 μg/ml) and anti-IgM, CCK-8, 72 h is 0.165 µM.

B1: TACI-Fc (Fc fusion, UniProt O14836 1-165, looked up)
chain: MSGLGRSRRGGRSRVDQEERFPQGLWTGVAMRSCPEEQYWDPLLGTCMSCKTICNHQSQRTCAAFCRSLSCRKEQGKFYDHLLRDCISCASICGQHPKQCAYFCENKLRSPVNLPPELRRQRSGEVENNSDNSGRYQGLEHRGSEASPALPGLKLSADQVALVYS
**Q.** B1 was tested. Which “IC50 of inhibition of Raji cell proliferation induced by BAFF (1 μg/ml) and anti-IgM, CCK-8, 72 h” value [3] did it give?
**A.** Its value is 0.0696 µM.
